Source: patent US6632633B1, “Process for oxidation of steroids and genetically engineered cells used therein” (Aventis Pharma, S.A., priority 1988, dated 2003)

T1: Bovine adrenodoxin (ADX), mature protein with added methionine start, expressed in K. lactis from pGBADX-1 or pGBSCC/ADX-1, P00257
T1 chain: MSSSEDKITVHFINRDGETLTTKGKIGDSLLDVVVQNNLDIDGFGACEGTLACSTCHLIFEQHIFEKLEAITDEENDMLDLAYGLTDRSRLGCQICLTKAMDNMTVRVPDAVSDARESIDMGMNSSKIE

T2: ADX purified from bovine adrenal cortex, P00257
T2 chain: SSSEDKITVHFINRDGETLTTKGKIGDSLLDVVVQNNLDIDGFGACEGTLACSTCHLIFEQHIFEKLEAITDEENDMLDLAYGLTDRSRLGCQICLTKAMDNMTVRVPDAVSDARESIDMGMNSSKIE


Key:
[1] = molecular target: T1, Bovine adrenodoxin (ADX), mature …
[2] = molecular target: T2, ADX purified from bovine adrenal …

Protein	cholesterol side-chain cleaving reaction in the presence of NADPH and ADR [1]	side chain cleavage of cholesterol (P450SCC activity assay, 14C/3H ratio) [2]	side chain cleavage of cholesterol (P450SCC activity assay, 14C/3H ratio) [1]
Bovine cytochrome P450 side chain cleavage enzyme (P450SCC), mature protein with added methionine start, expressed recombinantly (pGBSCC-5, pGBSCC-17, … (protein) MISTKTPRPYSEIPSPGDNGWLNLYHFWREKGSQRIHFRHIENFQKYGPIYREKLGNLESVYIIHPEDVAHLFKFEGSYPERYDIPPWLAYHRYYQKPIGVLFKKSGTWKKDRVVLNTEVMAPEAIKNFIPLLNPVSQDFVSLLHKRIKQQGSGKFVGDIKEDLFHFAFESITNVMFGERLGMLEETVNPEAQKFIDAVYKMFHTSVPLLNVPPELYRLFRTKTWRDHVAAWDTIFNKAEKYTEIFYQDLRRKTEFRNYPGILYCLLKSEKMLLEDVKANITEMLAGGVNTTSMTLQWHLYEMARSLNVQEMLREEVLNARRQAEGDISKMLQMVPLLKASIKETLRLHPISVTLQRYPESDLVLQDYLIPAKTLVQVAIYAMGRDPAFFSSPDKFDPTRWLSKDKDLIHFRNLGFGWGVRQCVGRRIAELEMTLFLIHILENFKVEMQHIGDVDTIFNLILTPDKPIFLVFRPFNQDPPQA	cholesterol side-chain cleaving activity was demonstrated in the cell-free extract of K. lactis SCC/ADX-101, whereas the cell-free extract of K. lactis SCC-101, no activity was detectable		
P450SCC expressed from pre-P450SCC encoding DNA in yeast (pGBSCC-12 in K. lactis, pGBSCC-13 in S. cerevisiae SCC-105) (protein) MLARGLPLRSALVKACPPILSTVGEGWGHHRVGTGEGAGISTKTPRPYSEIPSPGDNGWLNLYHFWREKGSQRIHFRHIENFQKYGPIYREKLGNLESVYIIHPEDVAHLFKFEGSYPERYDIPPWLAYHRYYQKPIGVLFKKSGTWKKDRVVLNTEVMAPEAIKNFIPLLNPVSQDFVSLLHKRIKQQGSGKFVGDIKEDLFHFAFESITNVMFGERLGMLEETVNPEAQKFIDAVYKMFHTSVPLLNVPPELYRLFRTKTWRDHVAAWDTIFNKAEKYTEIFYQDLRRKTEFRNYPGILYCLLKSEKMLLEDVKANITEMLAGGVNTTSMTLQWHLYEMARSLNVQEMLREEVLNARRQAEGDISKMLQMVPLLKASIKETLRLHPISVTLQRYPESDLVLQDYLIPAKTLVQVAIYAMGRDPAFFSSPDKFDPTRWLSKDKDLIHFRNLGFGWGVRQCVGRRIAELEMTLFLIHILENFKVEMQHIGDVDTIFNLILTPDKPIFLVFRPFNQDPPQA		During 3 hours of incubation, 45% of the cholesterol had been converted	
adrenodoxin reductase purified from bovine adrenal cortex (protein) STQEQTPQICVVGSGPAGFYTAQHLLKHHSRAHVDIYEKQLVPFGLVRFGVAPDHPEVKNVINTFTQTARSDRCAFYGNVEVGRDVTVQELQDAYHAVVLSYGAEDHQALDIPGEELPGVFSARAFVGWYNGLPENRELAPDLSCDTAVILGQGNVALDVARILLTPPDHLEKTDITEAALGALRQSRVKTVWIVGRRGPLQVAFTIKELREMIQLPGTRPMLDPADFLGLQDRIKEAARPRKRLMELLLRTATEKPGVEEAARRASASRAWGLRFFRSPQQVLPSPDGRRAAGIRLAVTRLEGIGEATRAVPTGDVEDLPCGLVLSSIGYKSRPIDPSVPFDPKLGVVPNMEGRVVDVPGLYCSGWVKRGPTGVITTTMTDSFLTGQILLQDLKAGHLPSGPRPGSAFIKALLDSRGVWPVSFSDWEKLDAEEVSRGQASGKPREKLLDPQEMLRLLGH		the side chain of the cholesterol was cleaved within 15 minutes in a yield of 50%	the side chain of the cholesterol was cleaved within 15 minutes in a yield of 50%
P450SCC purified from bovine adrenal cortex (protein) ISTKTPRPYSEIPSPGDNGWLNLYHFWREKGSQRIHFRHIENFQKYGPIYREKLGNLESVYIIHPEDVAHLFKFEGSYPERYDIPPWLAYHRYYQKPIGVLFKKSGTWKKDRVVLNTEVMAPEAIKNFIPLLNPVSQDFVSLLHKRIKQQGSGKFVGDIKEDLFHFAFESITNVMFGERLGMLEETVNPEAQKFIDAVYKMFHTSVPLLNVPPELYRLFRTKTWRDHVAAWDTIFNKAEKYTEIFYQDLRRKTEFRNYPGILYCLLKSEKMLLEDVKANITEMLAGGVNTTSMTLQWHLYEMARSLNVQEMLREEVLNARRQAEGDISKMLQMVPLLKASIKETLRLHPISVTLQRYPESDLVLQDYLIPAKTLVQVAIYAMGRDPAFFSSPDKFDPTRWLSKDKDLIHFRNLGFGWGVRQCVGRRIAELEMTLFLIHILENFKVEMQHIGDVDTIFNLILTPDKPIFLVFRPFNQDPPQA		the side chain of the cholesterol was cleaved within 15 minutes in a yield of 50%	the side chain of the cholesterol was cleaved within 15 minutes in a yield of 50%
